Measured values as given in patent US20140315817A1 (ALBUMEDIX, published 2014).

Biological target: T1, hsa-1: WT - Full Length HSA (human, UniProt P02768 25-609)
T1 construct: Yeast-expressed; also called HSA-wt; wt-HSA; not shown: Factor Xa cleavage site
Assay: method and origin of the value not stated

Kd: ~80 µM
B1: recombinant mouse FcRn (R&D Systems, cat#6775-FC-050) (receptor)
chain 1: SETRPPLMYHLTAVSNPSTGLPSFWATGWLGPQQYLTYNSLRQEADPCGAWMWENQVSWYWEKETTDLKSKEQLFLEALKTLEKILNGTYTLQGLLGCELASDNSSVPTAVFALNGEEFMKFNPRIGNWTGEWPETEIVANLWMKQPDAARKESEFLLNSCPERLLGHLERGRRNLEWKEPPSMRLKARPGNSGSSVLTCAAFSFYPPELKFRFLRNGLASGSGNCSTGPNGDGSFHAWSLLEVKRGDEHHYQCQVEHEGLAQPLTVDLDSSARSS
chain 2: IQKTPQIQVYSRHPPENGKPNILNCYVTQFHPPHIEIQMLKNGKKIPKVEMSDMSFSKDWSFYILAHTEFTPTETDTYACRVKHASMAEPKTVYWDRDM
notes: Bought reagent
